Experimental findings from publication PMC9712102 are described below.

Experiment [1] has as its target CapRel^SJ46–Flag. The experiment is described as follows: immunoprecipitation followed by mass spectrometry.
For experiment [2], the target named is Gp57, purified (phage SECΦ27). The experiment is described as follows: ITC; CapRel^SJ46 (or variant) at 150 μM in the syringe titrated into Gp57 (or variant) at 10 μM in the cell; 25 °C; 50 mM HEPES pH 7.5, 500 mM KCl, 500 mM NaCl, 150 mM imidazole, 10 mM MgCl2, 1 mM TCEP, 0.002% mellitic acid. Background: In ITC the heat of successive injections is recorded.

Experiment [3] concerns the target Gp57 (L114P I115F), purified (phage SECΦ27). Described as above.
Experiment [4] addresses Gp57, purified (phage SECΦ27). The experiment is described as follows: SEC-MALS; co-purified CapRel^SJ46–Gp57 complex at 5 mg ml^−1; 50 mM HEPES pH 7.5, 500 mM KCl, 500 mM NaCl, 10 mM MgCl2, 1 mM TCEP, 0.002% mellitic acid. In general terms: Size exclusion chromatography separates by hydrodynamic size, large species first.
Experiment [5] concerns the target CapRel^SJ46, purified full-length. The experiment is described as follows: ITC. The settings on record: CapRelSJ46 titrated into Gp57(L114P I115F).

For the substance “Gp57, major capsid protein of SECΦ27, made by wild-type phage during infection L114P”, the response (SC(Gp57)/SC(CapRelSJ46)) in experiment [1] (40 min after infection, bar = mean of 2 biological replicates, parent: est. 0.33, read off a plot) was 0.07. For the same substance, the response (spectral counts (SC)) in experiment [1] (replicate1, 15 min after infection, CapRelSJ46 SC 276 (L114P mutant), 286 (WT), parent: 12) was found to be 0; in experiment [1] (replicate1, 40 min after infection, CapRelSJ46 SC 251 (L114P mutant), 217 (WT), parent: 64) it was 25; in experiment [1] (replicate2, 15 min after infection, CapRelSJ46 SC 145 (L114P mutant), 161 (WT), parent: 0) it was 0; in experiment [1] (replicate2, 40 min after infection, CapRelSJ46 SC 156 (L114P mutant), 138 (WT), parent: 52) it was 6.
For “CapRel^SJ46, purified full-length (natural protein)”, the stoichiometry N (commonly the number of molecules, sites or subunits per partner or assembly) in experiment [2] was found to be 1. For the same substance, in experiment [3], the fold decrease in affinity against wild-type Gp57 is over 60 fold.
“CapRel^SJ46(Y155A), co-purified with Gp57 (natural protein)” registered a stoichiometry N in experiment [4] of 1.
Take Gp57, purified L114P; I115F: in experiment [5], the dissociation constant (Kd) (usually a measure of binding affinity in units of concentration) came to 23.7 µM.
